Laboratory results taken from patent US20260184780A1 (MONASH UNIVERSITY, published 2026).

T1: hPAR4 11-20 peptide (human)
T1 construct: Range counted on the hPAR4 immunising peptide; the C-terminal cysteine was removed, so nine residues are given; also called peptide 11-20
T1 peptide: APRGYPGQV

T2: hPAR4 1-9 peptide (human)
T2 construct: Range counted on the hPAR4 immunising peptide; also called peptide 1-9
T2 peptide: GDDSTPSIL

T3: human PAR4 on isolated human platelets (human, UniProt Q96RI0 18-385)
T3 construct: Endogenous receptor of donor platelets; donors carry Ala120 and/or Thr120; also called PAR4 on human platelets
T3 sequence: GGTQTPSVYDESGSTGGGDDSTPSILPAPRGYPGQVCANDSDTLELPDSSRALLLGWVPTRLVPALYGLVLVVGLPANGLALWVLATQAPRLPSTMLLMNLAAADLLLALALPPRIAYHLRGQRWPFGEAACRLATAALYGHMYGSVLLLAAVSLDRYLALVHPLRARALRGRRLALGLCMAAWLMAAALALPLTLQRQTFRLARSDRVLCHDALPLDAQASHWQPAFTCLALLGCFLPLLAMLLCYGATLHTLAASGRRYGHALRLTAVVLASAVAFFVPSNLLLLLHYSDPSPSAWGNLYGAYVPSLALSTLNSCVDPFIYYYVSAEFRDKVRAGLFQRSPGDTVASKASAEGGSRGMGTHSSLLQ

T4: hPAR3 (Biotin) peptide (human, biotin on the C-terminal lysine (SKB))
T4 construct: also called PAR3 peptide; PAR3 screening peptide
T4 peptide: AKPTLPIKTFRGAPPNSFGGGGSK

T5: hPAR1 (Biotin) peptide (human, not fully specified; biotin on the C-terminal lysine (SKB))
T5 construct: also called PAR1 peptide; PAR1 screening peptide
T5 peptide: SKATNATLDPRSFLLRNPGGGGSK

T6: hPAR2 (Biotin) peptide (human, not fully specified; biotin on the C-terminal lysine (SKB))
T6 construct: also called PAR2 peptide; PAR2 screening peptide
T6 peptide: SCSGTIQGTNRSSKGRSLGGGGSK

T7: hPAR4 (naked) peptide (human)
T7 construct: also called native PAR4 peptide; hPAR4 peptide
T7 peptide: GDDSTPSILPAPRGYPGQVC

T8: mPAR4 (naked) peptide (mouse)
T8 construct: T0021 says only 'mouse PAR4'; also called mouse PAR4
T8 peptide: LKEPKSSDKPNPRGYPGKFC

T9: hPAR4 (Biotin) peptide (human, biotin on the C-terminal lysine (SKB))
T9 construct: also called hPAR4-biotinylated peptide; biotin-coupled human PAR4 peptide
T9 peptide: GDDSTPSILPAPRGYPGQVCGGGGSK


How the values were obtained:
[1] = molecular target: T1, hPAR4 11-20 peptide; test: ELISA, peptide coated on the plate, purified mAb, background subtracted
Method: (§1) Briefly the peptides were coated onto a Nunc maxisorp ELISA plate at 10 ug/ml overnight in coating buffer (0.1 M sodium carbonate pH8.0). Purified mAbs diluted in PBS were used in place of supernatant.

[2] = molecular target: T2, hPAR4 1-9 peptide; test: as above
Method: as §1

[3] = molecular target: T3, human PAR4 on isolated human platelets; test: flow cytometry on isolated human platelets
[4] = molecular target: T4, hPAR3 (Biotin) peptide; test: ELISA, biotinylated peptide on streptavidin plate, absorbance 405 nm
Method: (§2) Biotinylated peptides (hPAR1-4) were diluted in Wash buffer and allowed to bind to the blocked Streptavidin coated wells at 10 ug/ml (100 ul per well) for 1 hour at room temperature with gentle mixing. Wells were washed 3 times as above and purified anti-hPAR4 mAbs prepared at 10 ug/ml in Wash buffer were allowed to bind (100 ul/well) for 1 hour at room temperature with gentle mixing. The plate was washed 3 times as above and anti-mouse Fc conjugated to Alkaline phosphatase (AP) at 0.3 ug/ml (100 ul) was added to the wells for 1 hour as above. Wells were washed 3 times as above and developed with Alkaline Phosphatase substrate as described for the screening supernatant ELISA.
(§3) To further characterise the purified anti-hPAR4 mAb's the specificity of the mAbs to hPAR1, hPAR2, hPAR3 and hPAR4 biotinylated peptides was performed.

[5] = molecular target: T5, hPAR1 (Biotin) peptide; test: as above
Method: as §2, §3

[6] = molecular target: T6, hPAR2 (Biotin) peptide; test: as above
Method: as §2, §3

[7] = molecular target: T3, human PAR4 on isolated human platelets; test: cell-based or functional assay
[8] = molecular target: T4, hPAR3 (Biotin) peptide; test: ELISA, hybridoma supernatant
[9] = molecular target: T5, hPAR1 (Biotin) peptide; test: ELISA, hybridoma supernatant
[10] = molecular target: T7, hPAR4 (naked) peptide; test: ELISA, hybridoma supernatant
[11] = molecular target: T8, mPAR4 (naked) peptide; test: ELISA, hybridoma supernatant
[12] = molecular target: T7, hPAR4 (naked) peptide; test: SPR Biacore T200, mAb captured by anti-mouse Fc, hPAR4 peptide as analyte
Method: A series S CM5 sensor chip was activated with standard EDC/NHS amine coupling chemistry using the manufacturers recommended protocol with Goat anti-mouse IgG Fc. Anti-hPAR4 mAbs were captured at 1-2 ug/ml for 2 minutes at 10 ul/minute on flow cell 2 (FC2) and flow cell 1 (FC1) was used as a reference channel. […] Blank injections of buffer alone were also performed. All injections were performed in duplicate and in a random order.
(§4) The kinetics of the binding interaction between the mAbs and hPAR4 was measured using Surface Plasmon Resonance (SPR; Biacore) by two different methods: 1. Anti-mouse Fc mAb capture method and 2. Streptavidin (SA) chip to capture biotinylated peptide. The ka(on) rate and kd(off) rates and KD were measured and fitted to a Langmuir model using the Biacore evaluation software.

[13] = molecular target: T9, hPAR4 (Biotin) peptide; test: SPR Biacore T200, biotin peptide on SA chip, whole mAb as analyte
Method: as §4

[14] = molecular target: T7, hPAR4 (naked) peptide; test: ELISA, purified mAb on hPAR4 peptide

Binder	GMFI at 10 ug/ml over isotype control [3]	binding result [4]	binding result [5]	binding result [6]	platelet aggregation, % of control [7]	binding to PAR3 ratio [8]	binding to PAR1 ratio [9]	fold binding native vs KLH-linked PAR4 peptide [10]	binding to mouse PAR4 ratio [11]	other results
5D.RH4.G7.E6.C7b.G7 (antibody, IgG2a, V domains shown, Human variable regions on mouse constant regions, IgG2a/K) VH: QIQLVESGGGVVQPGRSLRLSCAASGFTFSSDGMHWVRQAPGKGLEWVAVIWFDGRNKYYLDSVKGRFTISRDNSKNTLYLQMNSLRAEDTAVYYCARESSISTRPPFDYWGQGTLVTVSS VL: not shown	33	no binding (tested: 10 ug/ml)	no binding (tested: 10 ug/ml)	no binding (tested: 10 ug/ml)	–	–	–	–	–	binding result [1]: no binding; binding result [2]: no binding
5H.RA3.D3b.A2b (antibody, IgG2a, V domains shown, also called MoB5H A3) VH: QVQLVESGGGVVQPGRSLRVSCAASGFTFSSYGMLWVRQAPGKGLEWVAVIWYDGTKKYYADSLKGRFTISRDNSKYTLYLQMNSLRADDTALYFCARKGARGITGLDYWGQGTLVTVSS VL: not shown	100	no binding (tested: 10 ug/ml)	no binding (tested: 10 ug/ml)	no binding (tested: 10 ug/ml)	< 25 % of control	–	–	–	–	–
5F RE6.D3.E7 (antibody, IgG2a, V domains shown, also called MoB5F E6) VH: QVQLAESGGGVVQPGRSLRVSCAASGFTFSSYGMHWVRQAPGKGLEWVAVIWYDGTKKYYADSLKGRFTISRDNSKYTLYLQMNSLRADDTALYFCARKGARGITGLDYWGQGTLVTVSS VL: DIQMTQSPSSLSASAGDRITITCRASQSISNYLNWYQQKPGKAPKLLIYAASSLQSGVPSRFSGSGSGTDFTLTISSLQPEDFASYYCRQNYNTPLTFGGGTKVEIK	–	–	–	–	–	0.8 ratio	1.1 ratio	12 fold	12.2 ratio	–
5H RG4.H7b.F5b (antibody, IgG2a, V domains shown) VH: QVQLVQSGAEVKKPGASVKVSCKASGYTFTGHYFHWVRQAPGQGLEWMGWINPNSGGTNFAQRFQGRVTMTRVTSISTAYMELSGLRSDDTAVYYCARGYYDTSGYYYAFEFWGQGTLVIVSS VL: not shown	–	–	–	–	> 80 % of control	–	–	–	–	–
5G.RA1.E10.G3 (antibody, IgG2a, V domains shown, also called MoB5G A1) VH: QVQLVESGGGVVQPGRSLRLSCAASGFTFSSYGMHWVRQAPGKGLEWVAVIWYDGSNKYYADSVKGRFTISRDNSKNTLYLQMNSLRAEDTAVYYCARETALVRGVPFDYWGQGTLVTVSS VL: not shown	25	no binding (tested: 10 ug/ml)	no binding (tested: 10 ug/ml)	no binding (tested: 10 ug/ml)	–	–	–	–	–	binding result [1]: no binding; binding result [2]: no binding
5G RG1.D3.C2b (antibody, IgG1, V domains shown, also called MoB5G G1) VH: QVQLVESGGGVVQPGRSLRLSCVASGFTLSSYGMHWVRQAPGKGLEWVAVIWYDGSSKYYTDSVKGRFDISRDNSKNTLYLQMNILRAEDTAVYYCARETILIGGVPFDYWGQGTLVTVSS VL: EIVLTQSPGTLSLSPGERATLSCGASQSIRSNYLAWYQQKPGQAPRLLIYGASSRATGTPDRFSGSGSGTDFTLTITRLEPEDFALYYCQQYGRSYTFGQGTKLEIK	–	–	–	–	< 25 % of control	0.8 ratio	1.1 ratio	11.1 fold	8.6 ratio	–
5G RD6.D1.E11b (antibody, IgG2a, V domains shown) VH: QVQLVESGGGVVQPGRSLRLSCAASGFAFSSYGMHWVRQAPGKGLEWVAVIWYDGSNRYYADSVKGRFTISRDTSKNTLFLQMNSLRAEDTAVYYCARETAMVRGVPFDYWGQGTLVTVSS VL: not shown	–	–	–	–	> 80 % of control	–	–	–	–	–
5H.RF2.A5b.D3.C2 (antibody, IgG2a, V domains shown, also called MoB5H F2) VH: QVQLQQWGAGLLKPSETLALTCAVYGGSLSDYYWSWIRQPPGKGLEWIGEINHSGTTNYNPSLKSRVTISVDTSKKQFSLKLSSVTAADTAVYYCAIEYSNSRGYYYGMDVWGQGTTVTVSS VL: DIQMTQSPSSLSASAGDRITITCRASQTISNYLNWYQQKPGKAPKLLIYAASSLQSGVPSRFSGSGSGTDFTLTISSLQPEDFASYYCRQNYNTPLTFGGGTKVEIK	–	no binding (tested: 10 ug/ml)	no binding (tested: 10 ug/ml)	no binding (tested: 10 ug/ml)	> 80 % of control	0.9 ratio	1 ratio	11.9 fold	10.4 ratio	Kd [12]: 38 nM; koff [12]: 0.00227 s⁻¹; kon [12]: 58400 M⁻¹ s⁻¹; Kd [13]: 0.61 nM; koff [13]: 0.00111 s⁻¹; kon [13]: 1.84e+06 M⁻¹ s⁻¹; ELISA Pos:Neg ratio [14]: 8.5 ratio
5I.RG1.D6.C1b (antibody, IgG3, V domains shown, also called 51.RG1; MoB5I G1) VH: QVQLQQWGAGLLKPSETLSLACAISSGSFSTYFWRWIRQPPGKGLEWIGEIIHTGSTTYNPSLKSRVTISVDTSKNQLSLKLSSVTAADTAVYYCAFEYSSSGGYYYGMDVWGQGTTVTVSS VL: DIQMTQSPSSLSASVGDRVTITCRASQSISSYLNWYQQIPGKAPNLLIYAASSLRSGVPSRFSGSGSGTDFTLTISSLQPEDFATYYCQQTYSTPLTFGGGTKVEIK	–	no binding (tested: 10 ug/ml)	no binding (tested: 10 ug/ml)	no binding (tested: 10 ug/ml)	–	1 ratio	1 ratio	9.2 fold	9.4 ratio	Kd [12]: 105 nM; koff [12]: 0.00146 s⁻¹; kon [12]: 14000 M⁻¹ s⁻¹; Kd [13]: 0.36 nM; koff [13]: 0.000667 s⁻¹; kon [13]: 1.85e+06 M⁻¹ s⁻¹; ELISA Pos:Neg ratio [14]: 6.3 ratio
5H.RD2.A7b (antibody, IgG1, V domains shown, also called MoB5H-RD2.A7b; MoB5H D2) VH: EVQLVESGGDLVKPGGSLRLSCSASGFTFFNTWMNWVRQAPGKGLEWVGRVKSKNDGGTKDYAAPVTGRFTISRDDSKDTLYLQMNSLKTEDTAVYYCTTDPHYDFWSAYWGQGTLVTVSS VL: not shown	–	–	–	–	> 80 % of control	0.9 ratio	1 ratio	6 fold	6.2 ratio	–
